# Patent US20100056445A1, “ADIPONECTIN FOR THE TREATMENT AND DIAGNOSIS OF ALBUMINURIA” (THOMAS JEFFERSON UNIVERSITY, priority 2006, published 2010)
# Entries after “also recorded” stand apart in the source; their conditions may differ.
# B1: adiponectin: 30 kDa adipocyte-secreted protein; in the first series of tests the recombinant globular domain was used, later gAd or fAd (protein, UniProt Q15848 19-244, looked up)
# Adiponectin: ETTTQGPGVLLPLPKGACTGWMAGIPGHPGHNGAPGRDGRDGTPGEKGEKGDPGLIGPKGDIGETGVPGAEGPRGFPGIQGRKGEPGEGAYVYRSAFSVGLETYVTIPNMPIRFTKIFYNQQNHYDGSTGKFHCNIPGLYYFAYHITVYMKDVKVSLFKKDKAMLFTYDQYQENNVDQASGSVLLHLEVGDQVWLQVYGEGERNGLYADNDNDSTFTGFLLYHDTN
# Test system: AMPK
# Test: AMPK activity (p-Thr172 AMPKα) in podocytes by immunoblotting and confocal microscopy
# Assay type: cell-based, mouse
# Text: Western immunoblotting: Total protein from mouse podocytes was solubilized in lysis buffer containing 1% Triton X-100, Protease Inhibitor Cocktail (Mini Complete Protease Inhibitor Cocktail, Roche, Germany), PMSF, and phosphatase inhibitors. Protein was resolved on SDS-PAGE and transferred to a nitrocellulose membrane (Bio-Rad, Hercules, Calif.) as previously described (29). The membrane was immunoblotted initially with rabbit anti mouse phospho-AMPKα (p-AMPKα) monoclonal antibody or with rabbit anti AMPKα monoclonal (Cell Signaling Technology, New England Bio Labs, Boston, Mass.). Subsequently membranes were blotted with a secondary donkey anti-rabbit antibody (Amersham Biosciences, Piscataway, N.J.) conjugated to horseradish peroxidase (HRP). […]
# (§1) Immunohistochemistry: Immunocytochemistry was performed as described previously (30). […] Fluorescence pictures were obtained using confocal laser fluorescence microscope (LSM-510, Carl Zeiss, Jena, Germany). […] Quantitation of p-AMPKα positive cells was performed on 50 glomeruli from 4 mice in each group.
# as §1, with “p-AMPKa” for “p-AMPKα”, “group. […]” for “group.”
molecule,measurement,setting,value
B1,AMPK activity (AMPKα phosphorylation on Thr-172) in podocytes,"globular adiponectin 3 μg/ml, 24 h, serum-free, normal glucose",increased
same,Effect on the high glucose (HG) decrease of AMPK activity in podocytes,high glucose exposure plus adiponectin,prevented; also recorded: blocked
